Assay results: patent US20190127480A1 (Regeneron, published 2019)
Changes are numbered by the printed parent chain.

B1: H1H7198P (monovalent 1-arm) (antibody, human IgG1, V domains shown)
VH: EVQLVESGGGLVQPGRSLRLSCAASGFTFADYTMHWVRQVPGKGLEWVSDISWNSGSKDYADSVKGRFTISRDNAKNFLYLQMNSLRAEDTALYYCVKYGSGYGKFYFYAMDVWGQGTTVTVSS
VL: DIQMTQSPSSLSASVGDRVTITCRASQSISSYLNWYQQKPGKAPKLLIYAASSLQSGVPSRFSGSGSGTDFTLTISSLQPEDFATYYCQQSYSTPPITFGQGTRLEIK
notes: Monovalent 1-arm: second Fab removed, only the Fc portion (CH2-CH3) expressed; human IgG1 Fc; tied by numerical identifier; also called H1H7198B
B2: H1H7232P (monovalent 1-arm) (antibody, human IgG1, V domains shown)
VH: EVQLVESGGGLVHPGRSLRLSCAASGFTFDDYTMHWVRQAPGKGLEWVSDISWNSGSRGYADSVKGRFTISRDNAENSLYLQMNSLRAEDTALYYCAKDKSGYGHYYYYAMDVWGQGTTVTVSS
VL: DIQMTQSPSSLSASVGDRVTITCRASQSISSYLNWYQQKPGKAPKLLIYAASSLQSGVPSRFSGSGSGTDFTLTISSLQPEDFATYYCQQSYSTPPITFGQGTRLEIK
notes: Monovalent 1-arm: second Fab removed, only the Fc portion (CH2-CH3) expressed; human IgG1 Fc; tied by numerical identifier; also called H1H7232B
B3: H1xH7221G3 (monovalent 1-arm) (antibody, V domains shown)
VH: B2 VH with H13Q, T33S, D50G, R58I, E76K, K100G, H105Y, Y106F, A110G
VL: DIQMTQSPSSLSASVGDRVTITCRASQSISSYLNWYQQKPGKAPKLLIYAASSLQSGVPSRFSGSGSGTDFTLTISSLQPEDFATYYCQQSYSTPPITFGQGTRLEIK
notes: Monovalent 1-arm: second Fab removed, only the Fc portion (CH2-CH3) expressed; prefix H1xH not explained
B4: H1H7223P (monovalent 1-arm) (antibody, human IgG1, V domains shown)
VH: QVQLVESGGGLVQPGRSLRLSCAASGFTFADYTMHWVRQAPGKGLEWVSDISWNSGSMGYADSVKGRFTISRDNAKKSLYLQMNSLRTEDTALYYCAKDGSGYGKYFFYAMDVWGQGTTVTVSS
VL: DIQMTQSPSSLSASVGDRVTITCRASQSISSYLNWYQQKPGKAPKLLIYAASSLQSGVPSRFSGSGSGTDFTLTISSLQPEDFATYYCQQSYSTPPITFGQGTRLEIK
notes: Monovalent 1-arm: second Fab removed, only the Fc portion (CH2-CH3) expressed; human IgG1 Fc; tied by numerical identifier; also called H1H7223B
B5: H1H7221P (monovalent 1-arm) (antibody, human IgG1, V domains shown)
VH: B1 VH with A23V, A30D, T33S, V40A, D50G, F78S, V97A, F108H, A110G, M111L
VL: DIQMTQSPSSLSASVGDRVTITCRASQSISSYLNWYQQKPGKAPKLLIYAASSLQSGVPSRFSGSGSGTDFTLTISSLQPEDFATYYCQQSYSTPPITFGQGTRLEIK
notes: Monovalent 1-arm: second Fab removed, only the Fc portion (CH2-CH3) expressed; human IgG1 Fc; tied by numerical identifier; also called H1H7221B
B6: H1H7194P (monovalent 1-arm) (antibody, human IgG1, V domains shown)
VH: EVQLVESGGGLVQPGRSLRLSCAASGFTFGDYTMHWVRQAPGKGLEWVSDISWNSGSKDYADSVKGRFTISRDNAKNSLYLQMNSLRTEDTAFYYCAKDSRGYGLYYHLGLDVWGQGTTVTVSS
VL: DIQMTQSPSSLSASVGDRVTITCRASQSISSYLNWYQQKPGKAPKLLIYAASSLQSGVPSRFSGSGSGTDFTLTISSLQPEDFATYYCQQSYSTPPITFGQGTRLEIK
notes: Monovalent 1-arm: second Fab removed, only the Fc portion (CH2-CH3) expressed; human IgG1 Fc; tied by numerical identifier; also called H1H7194B
B7: H1H7195P (monovalent 1-arm) (antibody, human IgG1, V domains shown)
VH: B6 VH with G30A, K58I, D59A, L105H, Y107K, H108Y
VL: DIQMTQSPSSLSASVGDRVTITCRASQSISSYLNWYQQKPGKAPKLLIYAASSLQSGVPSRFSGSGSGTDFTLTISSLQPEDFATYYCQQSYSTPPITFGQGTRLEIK
notes: Monovalent 1-arm: second Fab removed, only the Fc portion (CH2-CH3) expressed; human IgG1 Fc; tied by numerical identifier; also called H1H7195B
B8: H1H7203P (monovalent 1-arm) (antibody, human IgG1, V domains shown)
VH: B1 VH with E6Q, V40T, D50G, F78S, A88T, V97A, K105R, F106Y, Y107F
VL: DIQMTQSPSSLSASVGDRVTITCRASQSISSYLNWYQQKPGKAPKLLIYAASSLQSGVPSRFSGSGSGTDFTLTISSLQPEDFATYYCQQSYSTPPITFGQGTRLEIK
notes: Monovalent 1-arm: second Fab removed, only the Fc portion (CH2-CH3) expressed; human IgG1 Fc; tied by numerical identifier; also called H1H7203B
B9: H1H7204P (monovalent 1-arm) (antibody, human IgG1, V domains shown)
VH: EVQLVESRGALVQPGRSLRLSCAASGFAFNDYTMHWVRQAPGKGLEWVSDISWNSNSKDYADSVKGRFTISRDNAKNSLYLQMNSLRAEDTALYYCVKDGSGYGKFSLYALDVWGQGTTVTVSS
VL: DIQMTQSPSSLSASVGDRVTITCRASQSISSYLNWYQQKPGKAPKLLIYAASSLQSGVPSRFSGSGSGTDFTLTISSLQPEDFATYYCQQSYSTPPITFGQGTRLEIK
notes: Monovalent 1-arm: second Fab removed, only the Fc portion (CH2-CH3) expressed; human IgG1 Fc; tied by numerical identifier; also called H1H7204B

Assays:
[1] = biological target: T1, Soluble heterodimeric CD3 protein (hCD3-epsilon/hCD3-delta) with either a human Fc tag (hFcΔAdp/hFc) or a … (human, UniProt P07766 23-126; P04234 22-105); experiment: SPR Biacore 25C antibody-capture, 1-arm
T1 construct: also called hCD3ε/δ; not shown: Fc tag: human (hFcΔAdp/hFc)
Method: Soluble heterodimeric CD3 protein (hCD3-epsilon/hCD3-delta; SEQ ID NOs:1652/1653) with either a human Fc tag (hFcΔAdp/hFc; SEQ ID NOs:1683/1684) or a mouse Fc tag (mFcΔAdp/mFc; SEQ ID NOs:1685/1686) was injected over the antibody captured surface and the binding response was recorded. Heterodimeric CD3 protein was purified using the method described in Davis et al. (US2010/0331527).
(§1) Kinetic association (kₐ) and dissociation (kd) rate constants were determined by processing and fitting the data to a 1:1 binding model using Scrubber 2.0 curve fitting software. Binding dissociation equilibrium constants (KD) and dissociative half-lives (t₁₁₂) were calculated from the kinetic rate constants as: KD (M)=kd/kₐ; and t_{1/2} (min)=(ln 2/(60*kd). NT=not tested; NB=no binding observed.

[2] = biological target: T1, Soluble heterodimeric CD3 protein …; experiment: SPR Biacore 25C antigen-capture, 1-arm
Method: In the antigen-capture format, heterodimeric CD3 protein was captured using a rabbit anti-mouse Fc or mouse anti-human Fc and the respective antibodies were injected over the captured antigen.
as §1

T1 sequence (P07766 23-126 limits assumed, stated change not applied, chain 1 of 2): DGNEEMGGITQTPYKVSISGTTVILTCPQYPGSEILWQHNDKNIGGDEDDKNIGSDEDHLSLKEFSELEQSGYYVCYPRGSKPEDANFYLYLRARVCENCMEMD
T1 sequence (P04234 22-105 limits assumed, stated change not applied, chain 2 of 2): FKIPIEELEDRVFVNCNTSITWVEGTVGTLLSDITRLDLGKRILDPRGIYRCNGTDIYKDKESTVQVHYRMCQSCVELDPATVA

Binder | Kd [1] [nM] | T½ [1] [min] | koff [1] [s⁻¹] | kon [1] [M⁻¹ s⁻¹] | Kd [2] [nM] | T½ [2] [min] | koff [2] [s⁻¹] | kon [2] [M⁻¹ s⁻¹] | binding result [1]
B1 | 6.02 | 73 | 0.000158 | 26300 | 0.112 | 163 | 7.07e-05 | 628000 | 
B2 | 220 | 7 | 0.00177 | 8030 | 10 | 8 | 0.00149 | 149000 | 
B3 |  |  |  |  |  |  |  |  | no binding
B4 | 19.2 | 38 | 0.000307 | 16000 | 1.53 | 40 | 0.000286 | 187000 | 
B5 | 27.5 | 40 | 0.000292 | 10700 | 1.75 | 48 | 0.000239 | 136000 | 
B6 | 13 | 76 | 0.000151 | 11600 | 0.241 | 137 | 8.43e-05 | 350000 | 
B7 | 3.16 | 117 | 9.89e-05 | 31300 | 0.126 | 162 | 7.14e-05 | 566000 | 
B8 | 18.3 | 43 | 0.000267 | 14600 | 0.498 | 48 | 0.000238 | 479000 | 
B9 | 25.3 | 32 | 0.000362 | 14300 | 2.12 | 32 | 0.000365 | 173000 | 
